Results: patent publication US20240409634A1 (Janssen / Centocor, published 2024)

B1: scFv-VHH bispecific molecule JL1 x 6H4 (scFv (VL-L-VH)-L-VHH with C-tag) (bispecific antibody)
chain: DIVMTQSPLSLPVTPGEPASISCKSSQSLLFSNGYKFLDWYLQRPGQSPQLLIYLGSYRASGVPDRFSGSGSGTDFTLKISRVEAEDVGLYYCMQALQTPPTFGGGTKVEIKGGSEGKSSGSGSESKSTGGSEVQLVESGGGLVQPGGSLKVSCEASGFTFSVSAIHWVRQASGKGLEWIGRIRSKGNSYATAYAASVKGRFTISRDDSKNTAYLQMDSLKTEDTAVYYCTRHNDKWNYYGLDVWGQGTTVTVSSGGGGSEVQLVESGGGLVQAGGSLRLSCAASGRPFSNYGMGWFRQAPGKKREFVAGISWSGGSTDYADSVKGRFTISRDNAKNTVYLQMNSLKPEDTAVYYCAAVFSGAETAYYPSDDYDYWGQGTQVTVSSAAAEPEA
B2: scFv-VHH bispecific molecule JL2 x 6H4 (scFv (VL-L-VH)-L-VHH with C-tag) (bispecific antibody)
chain: DIVMTQSPLSLPVTPGEPASISCRSSQSLLHSDGYNYLDWYLQKSGQSPQLLIYLGSYRASGVPDRFSGSGSGTDFTLKISRVEAEDVGIYYCMQVLQTPWTFGQGTKVEIKGGSEGKSSGSGSESKSTGGSEVQLVESGGGLVQPGGSLRLSCVVSGFTFSSYWMTWVRQAPGKGLEWVANIKQDGSERYYVDSVKGRFTISRDSAKNSLYLQMNSLRAEDTAVYYCAREVGYNWNQGGYFDYWGQGTLVTVSSGGGGSEVQLVESGGGLVQAGGSLRLSCAASGRPFSNYGMGWFRQAPGKKREFVAGISWSGGSTDYADSVKGRFTISRDNAKNTVYLQMNSLKPEDTAVYYCAAVFSGAETAYYPSDDYDYWGQGTQVTVSSAAAEPEA
B3: scFv-VHH bispecific molecule JL3 x 6H4 (scFv (VL-L-VH)-L-VHH with C-tag) (bispecific antibody)
chain: QSVLTQPPSASGTPGQRVTISCSGSSSNIGSNIVNWYQQFPGTAPKLLLYSDNQRPSGVPDRFSGSKSGTSASLAISGLQSEDEADYYCAAWDDSLNGPVFGTGTKVTVLGGSEGKSSGSGSESKSTGGSQVQLQESGPGLVKPSETLSLTCSVSGGSIRNYYWSWIRQSAGKELEWFGHIFSTGHINYDSSLKSRVTMSVDTSNNQFSLKLRSVTAADTAVYYCARDNGAALFDFWGQGTLVTVSSGGGGSEVQLVESGGGLVQAGGSLRLSCAASGRPFSNYGMGWFRQAPGKKREFVAGISWSGGSTDYADSVKGRFTISRDNAKNTVYLQMNSLKPEDTAVYYCAAVFSGAETAYYPSDDYDYWGQGTQVTVSSAAAEPEA
B4: scFv-VHH bispecific molecule JL4 x 6H4 (scFv (VL-L-VH)-L-VHH with C-tag) (bispecific antibody)
chain: DVVMTQSPLSLPVTLGQPASISCRSSQSLVYSDGNTYLNWFQQRPGQSPRRLIYKVSTRDSGVPDRFSGSGSGTDFTLKISRVEAEDVAVYYCLQGTHWPWTFGQGTKVEIKGGSEGKSSGSGSESKSTGGSQVQLVESGGGLVQPGGSLRLSCAASGITFSNYWMSWVRQAPGKGLEWVASIKRDGSDKYYVDSVKGRFTISRDNAKNSLSLQMHSLRAEDTAVYYCAKGEFDYWGQGTLVTVSSGGGGSEVQLVESGGGLVQAGGSLRLSCAASGRPFSNYGMGWFRQAPGKKREFVAGISWSGGSTDYADSVKGRFTISRDNAKNTVYLQMNSLKPEDTAVYYCAAVFSGAETAYYPSDDYDYWGQGTQVTVSSAAAEPEA
B5: scFv-VHH bispecific molecule JL5 x 6H4 (scFv (VL-L-VH)-L-VHH with C-tag) (bispecific antibody)
chain: QSVLTQPPSASGTPGQRVTISCSGSSSNIGSNIVNWYQQFPGTAPKLLIYSNNQRPSGVPDRVSGSKSGTSASLAISGLQSEDEADYYCAAWDDSLNGPVFGPGTKVTVLGGSEGKSSGSGSESKSTGGSQVQLQESGPGLVKPSETLSLTCSVSGASIRNYYWSWIRQTAGKGLEWLGHIYSTGNIHYNPSLKSRVTMSVDTSNNQFSLKLRSVTAADTAVYYCARDNGAALFDYWGQGTLVTVSSGGGGSEVQLVESGGGLVQAGGSLRLSCAASGRPFSNYGMGWFRQAPGKKREFVAGISWSGGSTDYADSVKGRFTISRDNAKNTVYLQMNSLKPEDTAVYYCAAVFSGAETAYYPSDDYDYWGQGTQVTVSSAAAEPEA
B6: scFv-VHH bispecific molecule JL6 x 6H4 (scFv (VL-L-VH)-L-VHH with C-tag) (bispecific antibody)
chain: QSVLTQPPSASGTPGQRVTISCSGSSSNIGSNPVNWYQQLPGTAPKLLIYSNNQRPSGVPDRFSGSKSGTSASLAISGLQSEDEADYFCAAWDDSLNGPVFGGGTKLTVLGGSEGKSSGSGSESKSTGGSQVQLQESGPGLVKPSETLSLTCTVSGGSISSYYWGWIRQPPGKGLEWIGYIYYSGSTNYNPSLKSRVTISVDTSKNQFSLKLSSVTAADTAVYYCARMWEILGFDPWGQGTLVTVSSGGGGSEVQLVESGGGLVQAGGSLRLSCAASGRPFSNYGMGWFRQAPGKKREFVAGISWSGGSTDYADSVKGRFTISRDNAKNTVYLQMNSLKPEDTAVYYCAAVFSGAETAYYPSDDYDYWGQGTQVTVSSAAAEPEA
B7: scFv-VHH bispecific molecule JL1 x 5D3 (scFv (VL-L-VH)-L-VHH with C-tag) (bispecific antibody)
chain: DIVMTQSPLSLPVTPGEPASISCKSSQSLLFSNGYKFLDWYLQRPGQSPQLLIYLGSYRASGVPDRFSGSGSGTDFTLKISRVEAEDVGLYYCMQALQTPPTFGGGTKVEIKGGSEGKSSGSGSESKSTGGSEVQLVESGGGLVQPGGSLKVSCEASGFTFSVSAIHWVRQASGKGLEWIGRIRSKGNSYATAYAASVKGRFTISRDDSKNTAYLQMDSLKTEDTAVYYCTRHNDKWNYYGLDVWGQGTTVTVSSGGGGSEVQLVESGGGLVQAGGSLRLSCAASGRPFSNYAMGWFRQAPGKEREFVTVISWSGGSTYYADSVKGRFTISRDNAKNTVYLQMNSLKPEDTAVYYCAAQFSGASTVVAGTALDYDYWGQGTRVTVSSAAAEPEA
B8: scFv-VHH bispecific molecule JL2 x 5D3 (scFv (VL-L-VH)-L-VHH with C-tag) (bispecific antibody)
chain: DIVMTQSPLSLPVTPGEPASISCRSSQSLLHSDGYNYLDWYLQKSGQSPQLLIYLGSYRASGVPDRFSGSGSGTDFTLKISRVEAEDVGIYYCMQVLQTPWTFGQGTKVEIKGGSEGKSSGSGSESKSTGGSEVQLVESGGGLVQPGGSLRLSCVVSGFTFSSYWMTWVRQAPGKGLEWVANIKQDGSERYYVDSVKGRFTISRDSAKNSLYLQMNSLRAEDTAVYYCAREVGYNWNQGGYFDYWGQGTLVTVSSGGGGSEVQLVESGGGLVQAGGSLRLSCAASGRPFSNYAMGWFRQAPGKEREFVTVISWSGGSTYYADSVKGRFTISRDNAKNTVYLQMNSLKPEDTAVYYCAAQFSGASTVVAGTALDYDYWGQGTRVTVSSAAAEPEA
B9: scFv-VHH bispecific molecule JL3 x 5D3 (scFv (VL-L-VH)-L-VHH with C-tag) (bispecific antibody)
chain: QSVLTQPPSASGTPGQRVTISCSGSSSNIGSNIVNWYQQFPGTAPKLLLYSDNQRPSGVPDRFSGSKSGTSASLAISGLQSEDEADYYCAAWDDSLNGPVFGTGTKVTVLGGSEGKSSGSGSESKSTGGSQVQLQESGPGLVKPSETLSLTCSVSGGSIRNYYWSWIRQSAGKELEWFGHIFSTGHINYDSSLKSRVTMSVDTSNNQFSLKLRSVTAADTAVYYCARDNGAALFDFWGQGTLVTVSSGGGGSEVQLVESGGGLVQAGGSLRLSCAASGRPFSNYAMGWFRQAPGKEREFVTVISWSGGSTYYADSVKGRFTISRDNAKNTVYLQMNSLKPEDTAVYYCAAQFSGASTVVAGTALDYDYWGQGTRVTVSSAAAEPEA
B10: scFv-VHH bispecific molecule JL4 x 5D3 (scFv (VL-L-VH)-L-VHH with C-tag) (bispecific antibody)
chain: DVVMTQSPLSLPVTLGQPASISCRSSQSLVYSDGNTYLNWFQQRPGQSPRRLIYKVSTRDSGVPDRFSGSGSGTDFTLKISRVEAEDVAVYYCLQGTHWPWTFGQGTKVEIKGGSEGKSSGSGSESKSTGGSQVQLVESGGGLVQPGGSLRLSCAASGITFSNYWMSWVRQAPGKGLEWVASIKRDGSDKYYVDSVKGRFTISRDNAKNSLSLQMHSLRAEDTAVYYCAKGEFDYWGQGTLVTVSSGGGGSEVQLVESGGGLVQAGGSLRLSCAASGRPFSNYAMGWFRQAPGKEREFVTVISWSGGSTYYADSVKGRFTISRDNAKNTVYLQMNSLKPEDTAVYYCAAQFSGASTVVAGTALDYDYWGQGTRVTVSSAAAEPEA
B11: scFv-VHH bispecific molecule JL5 x 5D3 (scFv (VL-L-VH)-L-VHH with C-tag) (bispecific antibody)
chain: QSVLTQPPSASGTPGQRVTISCSGSSSNIGSNIVNWYQQFPGTAPKLLIYSNNQRPSGVPDRVSGSKSGTSASLAISGLQSEDEADYYCAAWDDSLNGPVFGPGTKVTVLGGSEGKSSGSGSESKSTGGSQVQLQESGPGLVKPSETLSLTCSVSGASIRNYYWSWIRQTAGKGLEWLGHIYSTGNIHYNPSLKSRVTMSVDTSNNQFSLKLRSVTAADTAVYYCARDNGAALFDYWGQGTLVTVSSGGGGSEVQLVESGGGLVQAGGSLRLSCAASGRPFSNYAMGWFRQAPGKEREFVTVISWSGGSTYYADSVKGRFTISRDNAKNTVYLQMNSLKPEDTAVYYCAAQFSGASTVVAGTALDYDYWGQGTRVTVSSAAAEPEA
B12: scFv-VHH bispecific molecule JL6 x 5D3 (scFv (VL-L-VH)-L-VHH with C-tag) (bispecific antibody)
chain: QSVLTQPPSASGTPGQRVTISCSGSSSNIGSNPVNWYQQLPGTAPKLLIYSNNQRPSGVPDRFSGSKSGTSASLAISGLQSEDEADYFCAAWDDSLNGPVFGGGTKLTVLGGSEGKSSGSGSESKSTGGSQVQLQESGPGLVKPSETLSLTCTVSGGSISSYYWGWIRQPPGKGLEWIGYIYYSGSTNYNPSLKSRVTISVDTSKNQFSLKLSSVTAADTAVYYCARMWEILGFDPWGQGTLVTVSSGGGGSEVQLVESGGGLVQAGGSLRLSCAASGRPFSNYAMGWFRQAPGKEREFVTVISWSGGSTYYADSVKGRFTISRDNAKNTVYLQMNSLKPEDTAVYYCAAQFSGASTVVAGTALDYDYWGQGTRVTVSSAAAEPEA

Target: human CD33 on CD33-expressing THP-1 cells (human, UniProt P20138 18-364)
Assay: cell-based or functional assay

Sequence of human CD33 on CD33-expressing THP-1 cells (P20138 18-364): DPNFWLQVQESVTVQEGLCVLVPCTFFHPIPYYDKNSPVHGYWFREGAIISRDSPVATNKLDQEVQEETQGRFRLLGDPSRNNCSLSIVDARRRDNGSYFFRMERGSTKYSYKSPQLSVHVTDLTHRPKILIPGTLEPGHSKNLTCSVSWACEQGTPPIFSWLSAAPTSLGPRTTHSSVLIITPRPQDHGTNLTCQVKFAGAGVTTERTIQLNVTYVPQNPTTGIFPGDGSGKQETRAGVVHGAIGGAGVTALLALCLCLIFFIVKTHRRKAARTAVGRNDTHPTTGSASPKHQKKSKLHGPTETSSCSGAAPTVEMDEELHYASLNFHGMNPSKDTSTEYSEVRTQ

Binder	Cytotox EC50 (nM) Donor 104 [nM]	Cytotox EC50 (nM) Donor 156 [nM]
B1	0.011	0.0098
B2	~0.00097	~0.00077
B3	~0.00079	~0.00099
B4	~0.0004	~0.00035
B5	~0.0013	~0.0019
B6	0.0012	0.0013
B7	~0.61	~0.43
B8	0.0027	~0.0019
B9	~0.0013	~0.0008
B10	~0.027	0.023
B11	~0.00093	~0.0007
B12	0.0044	0.0029
